Results on two molecules are retold here after PMC1188515.

Data set [1] deals with T1, ScMre11p (Saccharomyces cerevisiae, UniProt P32829 1-692).
T1 sequence: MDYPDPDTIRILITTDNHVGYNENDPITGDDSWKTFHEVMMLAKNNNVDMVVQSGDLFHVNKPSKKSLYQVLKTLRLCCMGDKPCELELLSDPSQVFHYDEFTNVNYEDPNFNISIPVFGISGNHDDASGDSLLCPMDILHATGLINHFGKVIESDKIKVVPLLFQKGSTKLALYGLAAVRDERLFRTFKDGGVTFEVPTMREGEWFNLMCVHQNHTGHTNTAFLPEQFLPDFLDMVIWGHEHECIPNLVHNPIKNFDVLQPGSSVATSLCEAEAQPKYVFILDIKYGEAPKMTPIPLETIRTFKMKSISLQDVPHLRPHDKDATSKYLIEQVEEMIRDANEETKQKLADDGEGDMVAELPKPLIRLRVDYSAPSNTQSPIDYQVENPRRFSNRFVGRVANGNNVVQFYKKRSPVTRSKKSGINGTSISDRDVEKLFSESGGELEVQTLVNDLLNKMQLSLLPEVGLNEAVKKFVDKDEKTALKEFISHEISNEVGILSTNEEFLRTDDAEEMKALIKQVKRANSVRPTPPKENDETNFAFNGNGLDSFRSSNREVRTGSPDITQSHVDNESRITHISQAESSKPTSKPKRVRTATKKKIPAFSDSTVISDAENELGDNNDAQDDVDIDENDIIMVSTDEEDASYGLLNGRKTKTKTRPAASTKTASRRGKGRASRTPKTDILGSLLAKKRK
The data set is described as follows: EMSA.

For data set [2], the target named is T1, ScMre11p. Nature of the data set: EMSA. This is another data set of the same source. Background: In EMSA bound probe runs differently from free probe, usually more slowly.

Consider AATTCTGGGTGTGTGGGTGTGTGGGTGTGTGGGTGTGG (structured_DNA) [4G3 G4 DNA], for which the Kd (commonly the constant that tells how readily two partners part at equilibrium) in the data set with ScMre11p [1] was 70 nM.

B1: 6G3 G4 DNA (structured_DNA)
DNA: AATTCTGGGTGTGTGGGTGTGTGGGTGTGTGGGTGTGTGGGTGTGTGGGTGTGG
Turning to B1, in the data set with ScMre11p [2], the binding result was “binds”.
